The values below come from PMC5388414 (Nucleic Acids Research, 2016).

The target of series [1] is Prp43 (Saccharomyces cerevisiae, UniProt P53131, F357A). The series can be described thus: ITC. The class given is binding.
For series [2], the target named is T1, Prp43 (Saccharomyces cerevisiae, UniProt P53131). The series can be described thus: ITC. The class given is binding.
Series [3] has as its target T1, Prp43. Put plainly: ITC. The class given is binding. This is another data set of the same source.
Series [4] has as its target T2, Prp43 (UniProt P53131 1-767). Put plainly: filter binding.
For series [5], the target named is T3, Prp43 R159A (UniProt P53131 1-767, R159A). Put plainly: filter binding.
Series [6] addresses T4, Prp43 F357A (UniProt P53131 1-767, F357A). Put plainly: filter binding.
Series [7] concerns the target T3, Prp43 R159A. Put plainly: filter binding. The source holds these as a separate data set.
For series [8], the target named is T3, Prp43 R159A. Put plainly: filter binding. The source holds these as a separate data set.
Series [9] concerns the target T4, Prp43 F357A. Put plainly: filter binding. This is another data set of the same source.
For series [10], the target named is T2, Prp43. The series can be described thus: filter binding. The source holds these as a separate data set.
Series [11] concerns the target T3, Prp43 R159A. Put plainly: filter binding. The source holds these as a separate data set.
Series [12] has as its target T4, Prp43 F357A. The series can be described thus: filter binding. The source holds these as a separate data set.

The Kd is the free concentration of one partner at which half of the binding sites on the other are occupied at equilibrium, for simple one-to-one binding.

Like-named read-outs stand apart in the source and are kept apart here.

Consider `Nc1ncnc2c1ncn2[C@@H]1O[C@H](COP(=O)(O)OP(=O)(O)O)[C@@H](O)[C@H]1O` [ADP], for which the results for the Kd at Prp43 [1] and at Prp43 [2] were above 45 µM and 1.45 µM, respectively.
Consider `Nc1ccn([C@@H]2O[C@H](COP(=O)(O)OP(=O)(O)O)[C@@H](O)[C@H]2O)c(=O)n1` [CDP], for which the Kd on Prp43 [3] is above 25 µM.

B1: 21-mer ssRNA (ssRNA)
RNA: GACGGGCUGUUGGUGAUGGAC
For the molecule B1, the Kd in the series with Prp43 [4] turned out to be 0.042 ± 0.017 µM; in the series with Prp43 R159A [5], 0.02 ± 0.004 µM; with Prp43 F357A [6] it was 0.014 ± 0.001 µM; with Prp43 R159A [7], 0.018 ± 0.002 µM; with Prp43 R159A [8] it was 0.008 ± 0.001 µM; with Prp43 F357A [9] it was 0.043 ± 0.003 µM. In addition, the results for the Kd with Prp43 [10], with Prp43 R159A [11] and with Prp43 F357A [12] were 0.008 ± 0.003 µM, 0.003 ± 0.0008 µM and 0.006 ± 0.001 µM, respectively.
